system: K4 kissing-loop RNA reporter; assay: apparent KD of K4 kissing-loop reporter; higher = weaker reporter binding; conditions: Eterna round: R107; input ligand: FMN 200 uM
Experimental: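 RNA-MaP round R107: designed RNA switches with theophylline, tryptophan, arginine or FMN aptamers are transcribed on-chip within common flanks. They are titrated with a labelled K4 kissing-loop RNA reporter in RNA-MaP buffer (100 mM Tris pH 7.5, 80 mM KCl, 4 mM MgCl2), without ligand or with the indicated ligand. Median apparent KD per design.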
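Note: bound reporter read as fluorescence of individual clusters on recovered sequencing chips by microscopy, with normalized cluster intensities fitted with a binding model.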

Sequence	apparent KD of K4 kissing-loop reporter [nM]
GCGAUUCAGUGAUGUUGGAAAUACAGGGAUACCAGCCGAGAAUAAGGCCCUUGGCAGCUUAAUAGGAAAGAACUAAGUAAGACGC [Theophylline A Same State; Euphoria Solution 2]	574
AUUUUUUUGUCAGGAUAUUAGUAUGGUUUUGGUUUGUUAGUGAUGUUGAUAUUUUGUUUAUGUAUUUAAGAAGGGAUUUAGCGGU [gyhhgumullin]	404
GUAGACAGACUGCGGGCCUAGUCUACAGACUAGGAUAUCAGGAAACUGAGAAGGAGUCUAGUUGCAGUGAUGUUGCAAGAAUAAU [KL-SSFMN-A26]	99.1
AAGUGUCAUUAGACACAGACUACAAUAAACUAGGAUAUGCUGAUAAGCAGAAGGAGUGAUGUUCCUUUCAAGUAGUCAAUUAAAU [FmnAX 20 Mat Inspired #SwitchBubble #StaticStem #K4Late]	243
AAUACGAAGCAGUGAUGUUGCUUAUGAGAAGGAGCGCACGAAAGUGCAGGUAGGUCGCUCAGCCAUGUGGACGAAAACGUCCACA [whbob_SS_Arginine_A_sa109]	83.3
CCGAUGGGUACAGGAUAUGCCAGUGAUGUUGGUUUAGAUGGACCCAGAAGGAGACACCAGACGGAGGCAGAAGGGUAGCAAGGGA [Raarriis]	140
GCAGUGAUGUUGCGCGGGUACGGUAGAGUACGAGGACCGGUACGGCCGCCACUCGUACGGAACUGGCUAAUUUAUGGAAUGGUGA [IV]	377
UGUUUUUACUGAAGGAGCGGCAAUUGAUACGUAGAUAUAGUGAUGUUAUAUAAGAUAGAGAGCCAGGUAGGUCGCAGAGUGUUUC [ExArgB.aA]	250
AAUAAAAUCACGGCCGCCACUGAUGCUAAUAUUAGCAGUGAUGUUGCUAUGUAGAUUUUAUUUAACAGGACCGGGUGAAUAUUUA [JR_SSTryptoB_Sub025]	198
UAACUUGCAGUGAUGUUGCAAGAACUGGAUACCAGCAUGGAAACAUGCCCUUGGCAGCCAGAAGCUGGCUGAACAUCACGUCAGU [Design5]	227
UUAAUAAUUCAAGGAUAUGUUUUCUAUUUCGAGUGAUGUUCGGUAUUAAUAAAUUUAAUAGAUUAUACAGAAGGUGAUGGAUAGU [Cynwulf-mod#5]	108
AAGUCAUAUAGAAGGAGCGUGUUUUAUAAUUUAUUUUCAUGAUCGAGUGAUGUUCGAUAUACACAGGUAGGUCGCUGUAUAAUAA [hbob_SS_Arginine_B_2t140]	114
CUACAUGCACAGGAGUGAUGUUUAUGGGCUCGAGGACCGGUACGGCCGCCACUCGUUAUGGCACGCAGUAGAUAUAGGCGAGGAA [theeternabot_sameState_KL_Trp_A_41]	615
AGUGUGCAAAAGCACACUCAGCACAAGGACAAGGAUAUCUACUAAUAGAGAAGGUGUCCUUUCCUUAGUGAUGUUAAGGAGCUGA [Omei KL FMN A SS D v1]	238
UGUACCGAGUCAGGAUAUGGCGUCGAAAGACGAAUGCUAGUGAUGUUAGGGAUCUGCGAAAGCAGUCUAGAAGGGACUUGGUACU [FmnBS 26 G36+U68]	359
GAUCUGAACGAAAGUUCGGAUCAGUCCGAUACCAGUAUGGAUUCAUACCCUUGGCAGCGGAAAUCUGCUAUGGAGUGAUGUUCCA [Theophylline A K4 14]	532
AAGGGCUAGGCGGCCGCCACUGGUCGUGUACACAUACAGACCAGUGAUGUUGGUAUUGUAUGCGACAGGACCGGGCCUAGCCCAA [Exclusion - Tryptophan B (Freestyle 29)]	267
AGACUACUGACAGGAUAUAACAUACUAGCUCGUAUACCAAAGGUAUACGAGCACCUUCUAGUGAUGUUAGAAGGGUCGGUAGUCA [Omei KL FMN B Exc B v2]	412
CCGAUACAUUAUUCUACGGCCGAGAGCGAUACCAGCCAAAUUUAUGGCCCUUGGCAGCGCAGAUGCAGUGAUGUUGCAUACAUAC [Same State Theophylline A GF 18]	102
AAGCGUGUGGCGGCCGCCACUAGUCUCCAGUGAUGUUGGAGAUAUCACGUAAGUGAUAUCCGACAUAGGACCGGGCCAUAUGGAA [Same State - Tryptophan B (Freestyle 22)]	587
CCAUCGCUAUUCGAUACCAGUCAGGAGGUCUUUGGCCUCCUAUUGGAGUGAUGUUCCAUAGACCCUUGGCAGCGAAUAGUGAUGG [Theophylline B K4 15]	822
GGAUAGGAUAGAGGAUAUGGUUUAUGCAGAAAUAACUUAUUGUGUAAAUCCAUAGGGAGUGAUGUUCCAGAAGGCUGUCCUAUCG [MatMod 15 - Jieux - Exclusion - FMN B]	316
CUUUUACAGUCGGCCGCCACUGACAGCACUUCAAAGACAGUAUAAGGGUAGUGAUGUUACUUUAUCAGGACCGGGACUACCUAAC [theeternabot_sameState_KL_Trp_B_3]	215
GUACGCUCUCGAGUGAUGUUCGAUAAUCGCGAGGAUAUCGCUUUUGCGAGAAGGCGCGGAAUGAGGAAACUCGUUCUGAGUGUAC [FMN A 24]	603
UUAUAUAAGGGAAGGAGCGCGUGGGCGCAGUGAUGUUGCGCCCGACAUCACUUCAACUUAACGCAGGUAGGUCGCCCUUUUAAUA [Arginine B (Excl) V4]	188
CUCGAGUGAUGUUCGAUUAUGUAUACAGAUACCAGUGAAUUUUAACACCCUUGGCAGCUGGUAGAAUCAUUGUAAUUUUAACUAG [JR_ExcTheophyA_Sub001]	175
